The values that follow are results of earlier work, collected in PMC3440555 (Bioconjugate chemistry, 2012).

Series [1] concerns the target melanocortin-1 (MC1) receptor (Mus musculus, UniProt Q01727). Particulars: read-out: MC1 receptor binding affinity (IC50 value); B16/F1 melanoma cells.
Series [2] relates to B16/F1 melanoma-bearing mouse. To be noted: flank primary B16/F1 melanoma and B16/F10 pulmonary melanoma metastases; 2 h post-injection.
Series [3] has as its system B16/F1 melanoma-bearing C57 mice.

Chain of melanocortin-1 (MC1) receptor (Q01727 whole entry): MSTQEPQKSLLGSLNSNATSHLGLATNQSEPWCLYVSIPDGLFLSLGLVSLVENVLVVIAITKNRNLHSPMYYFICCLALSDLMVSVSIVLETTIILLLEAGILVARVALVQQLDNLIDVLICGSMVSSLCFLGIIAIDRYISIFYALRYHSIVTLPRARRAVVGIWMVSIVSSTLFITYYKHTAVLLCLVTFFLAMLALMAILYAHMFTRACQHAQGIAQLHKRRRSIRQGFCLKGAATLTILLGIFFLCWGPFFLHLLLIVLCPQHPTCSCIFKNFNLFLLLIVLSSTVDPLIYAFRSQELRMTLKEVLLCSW

As to “DOTA-GGNle-CycMSHhex: non-radiolabeled DOTA-conjugated lactam bridge-cyclized alpha-MSH peptide, DOTA-Gly-Gly-Nle-c[Asp-His-DPhe-Arg-Trp-Lys]-CONH2”, the IC50 in series [1] was 2.1 nM.
Turning to “^67Ga-DOTA-Gly-Glu-c[Lys-Nle-Glu-His-DPhe-Arg-Trp-Gly-Arg-Pro-Val-Asp] [^67Ga-DOTA-GlyGlu-CycMSH]”, the “Visualization of melanoma by SPECT/CT” value in series [2] was “clearly visualized”. In addition, the “Decrease of renal uptake by L-lysine co-injection” value in series [3] (2 h post-injection, melanoma uptake not affected) was 69.8%. Also, in series [3] (mouse, in vivo, 2 h), the Renal uptake is on record as 27.55 ± 7.87 %ID/g and the Tumor uptake was 12.93 ± 1.63 %ID/g.

Usually IC50 stands for the concentration needed to halve the response being measured.
